Our source for the protein production values is a protein production outcome set (Wang et al. 2014).

The nature of this series: label from the status in PepcDB records.

With “MAADPASAPVLLHPRRAMVLAAGLGLRMRPLTETMPKPLVAIHDKPLIDWALDHLATAGVEEAVVNLHHLPEMLEAHLQGRATPRIHFSDETGQRLETGGGVRKALPHLGDDPFYVLNSDVLWLNGTIPALDRLAAAWDPETMDALLLLHPLAAAHGYEGLGDFDLDPLGRPTRRAEMHMAPFIFTGVQILHPRLFDDAPEGPFSLNVLYDRALSEDRLAAIVHDGEWYHVGTPQALVHTETILGQHSSMSDQLEHHHHHH”, the protein production result is on record as “failed”.

In the case of “MAAEIGSDSQLKRRRRRDPEGSEKTELSEREPALAVEGREENDDENEERWVGPLPVEATLAKKRKVLEFERVYLENLPSASMYERSYMHRDVITHVVCTKTDFIITASHDGHVKFWKKIEEGIEFVKHFRSHLGIIESIAVSSEGALFCSVGDDKAMKVFDVVNFDMINMLKLGYFPGQCEWIYCPGDAISSVAASEKSTGKIFIYDGRGDNQPLHIFDKLHVSPLTQIRLNPVYKAVVSSDKSGMIEYWTGPPHEYKFPKTVNWEYKTDTDLYEFAKCKAYPTSICFSPDGKKIATIGSDRKVRIFRFLTGKLMRVFDESLSMFTELQQMRQQLPDMEFGRRMAVERELEKVDAVRLINIVFDETGHFVLYGTMLGIKVINVETNRCVRILGKQENIRVMQLALFQGIAKKHRAAATIEMKASENPVLQNIQADPTIVCTSFKKNRFYMFTKREPEDTKSADSDRDVFNEKPSKEEVMAATQAEGPKRVSDSAIVHTSMGDIHIKLFPVECPKTVENFCVHSRNGYYNGHTFHRIIKGFMIQTGDPTGTGMGGESIWGGEFEDEFHSTLRHDRPYTLSMANAGSNTNGSQFFITVVPTPWLDNKHTVFGRVTKGMEVVQRISNVKVNPKTDKPYEDVSIINITVK”, the protein production result is “failed”.

As to “MAAEPLTELEESIETVVTTFFTFARQEGRKDSLSVNEFKELVTQQLPHLLKDVGSLDEKMKSLDVNQDSELKFNEYWRLIGELAKEIRKKKDLKIRKK”, the protein production result is “not failed”.

Consider “MAAFVRDYLEASVENETDGGRMRWYPWHSAEYRFTHIMNVVDIAERIAEATSANVDVVRVAALFHDIAKLEAEQDAHAEEGARIARKYLETHGQFPPSFVDQVAEAVSRHSYQGDLMDLPLEARCLVEADLLDKAGANGAALMLLRMGYEARTHVDAAEMIQRVLDRGEDAAERVESDAASSIAHRRLKRVRWLHDWLTSEVPAMNDTGY”, for which the protein production result was “failed”.

“MAAGFFQAEMSILSSTLARSYSLPIRKTLMTFDFRIAMQRNPCLRIRRSCVAAFSSTPSHSRNFPIRGLEDVFVGYLFGRKKATEVAHVVWEQVIQKGDTVIDATCGNGNDTLAMLKMVMHDSVGCGGYVYAMDIQKDAIESTSSLLDQAVGSKEKECVKLFNLCHSKMGEIVPENARVRMVAFNLGYLPGGNKSIITLSDTTLSALKAAERILKPGGLISLVVYIGHPGGREELEVVEAFGSGLPVSDWICCKFQMLNRPLAPVLVFMFKREN”: the protein production entry was “failed”.

Consider “MAAITEFLPKEYGYVVLVLVFYCFLNLWMGAQVGRARKRYNVPYPTLYAIESENKDAKLFNCVQRGHQNSLEMMPMYFILMILGGMKHPCICTGLGLLYNVSRFFYFKGYATGDPMKRLTIGKYGFLGLLGLMICTISFGVTLILA”, for which the protein production entry is recorded as “failed”.

On to “MAAKICNRKNCKRSVQKMRIRSLLIILTIGLLLVNAICVSALGQTSESIARGDVYFGLMRYRDAIAWYKLDSTKAEAQWKIARAYVCYGDNAVPAEKEYNFRNAVRAANKCIELEETNANGHTWLAAALGNTAMYEGSKTKVRLCTQIKKELNRAIALNPKDDIAYSILGSFYREIGNISWLEKQLAMTFIGKIPDGTYEDSEKAFAKAIALNPTIMRHWYEQGLLYKYWNKNEQAIASFNKAKACPVFVSSDNKRLAAIEVYLKNLQ”, for which the protein production entry was “failed”.

As to “MAAKPGIPKGTRDFSPVEMAKRNYIFNTIRDVFHLFGYQQIETPSMENLSTLMGKYGDEGDKLLFKIQNSGDYFNGITDEELLSRNAVKLASKFCEKGLRYDLTVPFARYVVMHRDEISFPFKRYQIQPVWRADRPQKGRYREFYQCDADVVGSNSLLNEVELVQMIDRVFGKFGVRVSIKINNRKILTGIAEIIGEADKIVDITVAIDKLDKIGLENVNAELASKGIPQEAIDKLQPIILLSGSNEEKLETLKTVLATSEAGLKGVEESEFILKTVSALGVKSEVELDLTLARGLNYYTGAIFEVKALDVQIGSISGGGRYDNLTGVFGMDGMSGVGISFGADRIFDVLNQLDLYPKE”, the protein production result is given as “not failed”.

Consider “MAALAEEQTEVAVKLEPEGPPTLLPPQAGDGAGEGSGGTPNNGPNGGGGGNVAVAAAAGGDGGTPKPGVAVSAAAPAGAAPVPAAPAEAGAPHDRQTLLAVLQFLRQSNLREAEEALRREARLLEEAVAGSGAPGELDGAGAEAASALLSRVTASVPGSAAPEPPGTGASVTSVFSGSASGPAAPGKVASVAVEDQPDVSAVLSAYNQQGDPTMYEEYYSGLKHFIECSLDCHRAELSQLFYPLFVHMYLELVYNQHENEAKSFFEKFHGDQECYYQDDLRVLSSLTKKEHMKGNETMLDFRTSKFVLRISRDSYQLLKRHLQEKQNNQIWNIVQEHLYIDIFDGMPRSKQQIDAMVGSLAGEAKREANKSKVFFGLLKEPEIEVPLDDEDEEGENEEGKPKKKKPKKDSIGSKSKKQDPNAPPQNRIPLPELKDSDKLDKIMNMKETTKRVRLGPDCLPSICFYTFLNAYQGLTAVDVTDDSSLIAGGFADSTVRVWSVTPKKLRSVKQASDLSLIDKESDDVLERIMDEKTASELKILYGHSGPVYGASFSPDRNYLLSSSEDGTVRLWSLQTFTCLVGYKGHNYPVWDTQFSPYGYYFVSGGHDRVARLWATDHYQPLRIFAGHLADVNCTRFHPNSNYVATGSADRTVRLWDVLNGNCVRIFTGHKGPIHSLTFSPNGRFLATGATDGRVLLWDIGHGLMVGELKGHTDTVCSLRFSRDGEILASGSMDNTVRLWDAVKAFEDLETDDFTTATGHINLPENSQELLLGTYMTKSTPVVHLHFTRRNLVLAAGAYSPQ”, for which the protein production entry is listed as “failed”.

With “MAAMPKPAAFWNDRFANEEYVYGEAPNRFVASAARTWLPEAGEVLLLGAGEGRNAVHLAREGHTVTAVDYAVEGLRKTERLATEAGVEVEAIQADVREWKPARAWDAVVVTFLHLPADERPGLYRLVQRCLRPGGRLVAEWFRPEQRTDGYTSGGPPDPAMMVTADELRGHFAEAGIDHLEAAEPTLDEGMHRGPAATVRLVWCRPSTSLEHHHHHH”, the protein production result is on record as “not failed”.

For the sequence “MAANMYRVGDYVYFENSSSNPYLIRRIEELNKTANGNVEAKVVCFYRRRDISSTLIALADKHATLSVCYKAGPGADNGEEGEIEEEMENPEMVDLPEKLKHQLRHRELFLSRQLESLPATHIRGKCSVTLLNETESLKSYLEREDFFFYSLVYDPQQKTLLADKGEIRVGNRYQADITDLLKEGEEDGRDQSRLETQVWEAHNPLTDKQIDQFLVVARSVGTFARALDCSSSVRQPSLHMSAAAASRDITLFHAMDTLHKNIYDISKAISALVPQGGPVLCRDEMEEWSASEANLFEEALEKYGKDFTDIQQDFLPWKSLTSIIEYYYMWKTTDRYVQQKRLKAAEAESKLKQVYIPNYNKPNPNQISVNNVKAGVVNGTGAPGQSPGAGRACESCYTTQSYQWYSWGPPNMQCRLCASCWTYWKKYGGLKMPTRLDGERPGPNRSNMSPHGLPARSSGSPKFAMKTRQAFYLHTTKLTRIARRLCREILRPWHAARHPYLPINSAAIKAECTARLPEASQSPLVLKQAVRKPLEAVLRYLETHPRPPKPDPVKSVSSVLSSLTPAKVAPVINNGSPTILGKRSYEQHNGVDGNMKKRLLMPSRGLANHGQARHMGPSRNLLLNGKSYPTKVRLIRGGSLPPVKRRRMNWIDAPDDVFYMATEETRKIRKLLSSSETKRAARRPYKPIALRQSQALPPRPPPPAPVNDEPIVIED”, the protein production result is “failed”.

Take “MAAPLRIQSDWAQALRKDEGEAWLSCHPPGKPSLYGSLTCQGIGLDGIPEVTASEGFTVNEINKKSIHISCPKENASSKFLAPYTTFSRIHTKSITCLDISSRGGLGVSSSTDGTMKIWQASNGELRRVLEGHVFDVNCCRFFPSGLVVLSGGMDAQLKIWSAEDASCVVTFKGHKGGILDTAIVDRGRNVVSASRDGTARLWDCGRSGCLGVLADCGSSINGVAVGAADNSINLGSPEQMPSEREVGTEAKMLLLAREDKKLQCLGLQSRQLVFLFIGSDAFNCCTFLSGFLLLAGTQDGNIYQLDVRSPRAPVQVIHRSGAPVLSLLSVRDGFIASQGDGSCFIVQQDLDYVTELTGADCDPVYKVATWEKQIYTCCRDGLVRRYQLSDL”: the protein production entry is given as “failed”.

Consider “MAAQALLSVGERRLLRGVDEQRALGAALARALAPGSVLFLEGELGAGKTTLTQGLLAALGFDGHVTSPTYALMQLYPASAGQVLHVDAYRVRDVAELYEMDLDELIAGSRLSVIEWGEGLYADYPQAPIYLFEHVEGDPETRRVTRRRLEHHHHHH”, for which the protein production entry was “failed”.

As for “MAASLRSFLEQLKRQNSLYLVKKPVNPRFELGALLKKTKGTVPMFFQNIEGYDVPAVGGIVGTRENFAQALRINKSELLAKITEAITNPGETRLLPSGPVQENVLTKGFDIGKMFPIPTFHEKDSGAFITAGIVVAKDPIYGRRFTSIRRMQLNGPNNLSILIESPGLIEQYYEFERRGQAMEVAIVLGVHPAITLSSQLPTQTFGLDKYNVASRLIGEPLPVVKCKTIDLEVPADAEIVLEGRMLPYVRHPEGPFGELMGYYGPQTMQPVVEVTAVTFRNNPIFQVIFPSSYEHKLPNALMREVVLFNHVRHVVPTVQDVHLTMAGGGRCHAIISIKKTAEGQGKQAIFAALASNKDVKHVVVVNDDVDIFDPEDVEWAIATRVQADQDIIIIPGAQGTPLEPSHNLRGVSAKMGIDATYPLAEEERFARTQIPGYDQIRLEDYLTLDW”, the protein production entry is recorded as “not failed”.

Take “MAASTDIAGLEESFRKFAIHGDPKASGQEMNGKNWAKLCKDCKVADGKAVTGTDVDIVFSKVKAKSARVINYEEFKKALEELATKRFKGKSKEEAFDAICQLIAGKEPANIGVTKAKTGGAVDRLTDTSKYTGSHKER”: the protein production entry is “not failed”.

With “MAAVSPAAAARSAAAAVRDGGEMVRRMTPQDLDRIAQAVAEAEKTTAGEIFCVLTPEVSDYRETPLVWAAASALVLPAGALLAGFRPEMLTRLFGGWSVGHQAAHDGAILSALSTYIVLQLVVFVVAALVVSIPPVRRALTPGALKTARVKRAAMEQFLSHGLHVTRDRTGVLIFAALAEHRVEVIADEGIYKAAPNAVWNEVVADLVAGLKRGKIADGFVAAVARTGGILAAHVPPRGDDRNELSDGLTILPRR”, the protein production result was “failed”.

With “MADCDSVTNSPLATATATLHTNRGDIKIALFGNHAPKTVANFVGLAQGTKDYSTQNASGGPSGPFYDGAVFHRVIQGFMIQGGDPTGTGRGGPGYKFADEFHPELQFDKPYLLAMANAGPGTNGSQFFITVGKTPHLNRRHTIFGEVIDAESQRVVEAISKTATDGNDRPTDPVVIESITIS”, the protein production result is “not failed”.

Turning to “MADERRCGVCRPLGGPRQPWPAGLLHCSSRAIFASLCMPRIVFAPAIQRHVAMPALDVGAATVAAALQAAFAREPRLRGYLLDDQGSLRRHVALFVDGVQVRDRRGLGDPLQDDSEIYVVQALSGGLEHHHHHH”, the protein production entry is “failed”.
